For three substances, unregulated myosin ATPase: KM for ACTC protein, 2 mM ATP results are on record in article PMC11708414.

The assay deals with heavy mero-myosin (HMM) (rabbit).
The substance “wildtype cardiac actin (WT-ACTC) (from UniProt P68032 1-377) (natural protein)” showed an unregulated myosin ATPase: KM for ACTC protein, 2 mM ATP of 5.63 µM. The figure for “R312H cardiac actin variant (R312H-ACTC) (natural protein)” is 24.8 µM; for “R312C cardiac actin variant (R312C-ACTC) (natural protein)” it is 16.6 µM.
